# Assay results reported in patent US20250082608A1, “TREATMENT AND PREVENTION OF GLOMERULAR DISEASE” (Singapore Health Services PTE LTD., priority 2021, published 2025).
# “Also recorded” adds a separate entry of the source.
# B1: IL-11: pleiotropic cytokine, member of the IL-6 family; human sequence SEQ ID NO:1 (protein)
# chain: PGPPAGSPRVSSDPRADLDSAVLLTRSLLADTRQLAAQMRDKFPADGDHSLDSLPTLAMSAGTLGSLQLPGVLTRLRVDLMSYLRHVQWLRRAGGPSLKTLEPELGALQARLERLLRRLQLLMSRLALPQAAPDQPVIPLGPPASAWGSIRAAHAILGGLHLTLDWAVRGLLLLKTRL
# B2: Enx203: mouse anti-mouse IL-11 IgG, neutralizing; VH SEQ ID NO:22, VL SEQ ID NO:23 (antibody, V domains shown)
# VH: EVQLQQSGPELVKPGASVKIPCKASGYTFTDYNMDWVKQSHGKSLEWIGDINPHNGGPIYNQKFTGKATLTVDKSSSTAYMELRSLTSEDTAVYYCARGELGHWYFDVWGTGTTVTVSS
# VL: DIVLTQSPASLAVSLGQRATISCRASKSVSTSGYSYIHWYQQKPGQPPKLLIYLASNLDSGVPARFSGSGSGTDFTLNIHPVEEEDAATYYCQHSRDLPPTFGGGTKLEIK
# Assays:
# [1] = test system: rheumatoid synovial cells; conditions: upon treatment; cited from earlier work
# [2] = test system: Col4a3−/− mice; conditions: cited from earlier work
# [3] = test system: Col4a3−/− mice; test: Lifespan study in Col4a3−/− mice, anti-IL11 and ramipril alone or in combination, Example 3; format: in vivo, mouse; conditions: X203 20 mg/kg twice a week, ramipril 10 mg/kg 6 days/week, from 6 weeks of age; for mean percentage lifespan extension: over lifespan of untreated Col4a3−/− mice
# Description: Col4a3^−/− (Col4a3^tm1Dec) mice were housed as described in Example 2.2. For lifespan studies, the mice were intraperitoneally administered either anti-IL11 (X203; twice a week, 20 mg/kg) or IgG isotype control (11 E10; twice a week, 20 mg/kg) alone or in combination with ramipril (10 mg/kg; 6 days/week) starting from 6 weeks of age, until death ensued.
# [4] = biological target: T1, IL-11Rα (Homo sapiens, UniProt Q14626); conditions: low affinity; cited from earlier work
# T1 sequence (Q14626 23-422): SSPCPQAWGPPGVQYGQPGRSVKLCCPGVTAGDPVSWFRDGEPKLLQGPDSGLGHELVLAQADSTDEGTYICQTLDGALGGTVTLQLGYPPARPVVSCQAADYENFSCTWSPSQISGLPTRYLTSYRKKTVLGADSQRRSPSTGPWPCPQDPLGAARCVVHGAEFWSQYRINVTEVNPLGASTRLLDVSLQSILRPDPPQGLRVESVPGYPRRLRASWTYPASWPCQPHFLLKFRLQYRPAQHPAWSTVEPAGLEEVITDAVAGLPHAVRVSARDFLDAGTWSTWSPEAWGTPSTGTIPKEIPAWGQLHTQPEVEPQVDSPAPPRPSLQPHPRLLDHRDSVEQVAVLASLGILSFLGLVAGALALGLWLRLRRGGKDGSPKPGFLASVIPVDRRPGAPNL
# [5] = test system: Col4a3−/− mice; test: Treatment study in Col4a3−/− mice: Wilms' Tumor 1 immunohistochemistry (podocytes); format: in vivo, mouse; conditions: blinded quantification; vs IgG, P=0.0002
# Description: (§1) Col4a3^−/− (Col4a3^tm1Dec) mice were purchased from The Jackson Laboratory (https://www.jax.org/strain/002908). Mice were housed in temperatures of 21-24° C. with 40-70% humidity on a 12 h light/12 h dark cycle and provided with food and water ad libitum. For treatment study, Col4a3^−/− were administered 20 mg/kg of anti-IL11 (X203) or IgG isotype control (11 E10) by intraperitoneal (IP) injection starting from 6 weeks of age twice a week for 2.5 weeks; wild-type littermates were used as controls. Mice were sacrificed for blood and kidney collection when they were 8.5-week-old. For lifespan study, IgG/X203 was administered to 6-week-old Col4a3^−/− (2×/week) until death ensued.
# Kidneys were fixed in 10% neutral-buffered formalin (NBF), paraffinized, cut into 7 μm sections, incubated with primary antibodies overnight and visualized using an ImmPRESS HRP anti-rabbit IgG polymer detection kit (MP-7401, Vector Laboratories) with ImmPACT DAB Peroxidase Substrate (SK-4105, Vector Laboratories). Quantification of WT^+ve cells were performed in a blinded fashion from 4 images (200×field)/kidney (n=3-4 kidneys/group).
# [6] = test system: Col4a3−/− mice; test: Treatment study in Col4a3−/− mice: renal function (BUN, serum creatinine, urinary albumin:creatinine) by colorimetric assays/ELISA; format: in vivo, mouse; conditions: study end, 8.5 weeks of age; X203 from week 6
# Description: as §1
# The levels of blood urea nitrogen (BUN) and creatinine in mouse serum were measured using Urea Assay Kit (ab83362, Abcam) and Creatinine Assay Kit (ab65340, Abcam), respectively. Urine albumin and creatinine levels were measured using Mouse Albumin ELISA kit (ab108792, Abcam) and Creatinine Assay Kit (ab204537, Abcam), respectively. All ELISA and colorimetric assays were performed according to the manufacturer's protocol.
# [7] = test system: Col4a3−/− mice; test: Lifespan study in Col4a3−/− mice, Example 2; format: in vivo, mouse
# Description: as §1
# Statistical analyses were performed using GraphPad Prism software (version 8). Statistical significance between control and experimental groups were analysed by twosided Student's t tests or by one-way ANOVA as indicated in the figure legends. P values were corrected for multiple testing according to Tukey when several conditions were compared to each other within one experiment. Comparison analysis for two parameters from two different groups were performed by two-way ANOVA. Survival curves were analyzed by Gehan-Breslow-Wilcoxon test. The criterion for statistical significance was P<0.05.
# [8] = test system: Col4a3−/− mice; test: Treatment study in Col4a3−/− mice: renal mRNA expression by qPCR; format: in vivo, mouse
# Description: as §1
# Total RNA was extracted from snap-frozen kidney tissues using Trizol (Invitrogen) followed by RNeasy column (Qiagen) purification. cDNAs were synthesized with iScript™ cDNA synthesis kit (Bio-Rad) according to manufacturer's instructions. Gene expression analysis was performed on duplicate samples with either TaqMan (Applied Biosystems) or fast SYBR green (Qiagen) technology using StepOnePlus™ (Applied Biosystem) over 40 cycles. Expression data were normalized to GAPDH mRNA expression and fold change was calculated using […]. The sequences of specific TaqMan probes and SYBR green primers are available upon request.
# [9] = test system: Col4a3−/− mice; test: Treatment study in Col4a3−/− mice: renal fibrosis (total renal collagen content, Masson's Trichrome staining); format: in vivo, mouse; conditions: 20 mg/kg 2x/week for 2.5 weeks from 6 weeks of age; vs IgG
# Description: as §1
# Kidney tissues were fixed for 48 hours at RT in 10% neutral-buffered formalin (NBF), dehydrated, embedded in paraffin, and sectioned at 7 μm. Transverse kidney sections were then stained with Masson's Trichrome according to standard protocol. Images of the sections were captured by light microscopy and blue-stained fibrotic areas were semi-quantitatively determined with Image-J software (color deconvolution-Masson Trichrome) from the whole kidney area (100×field, n=4 kidneys/group). Treatment and genotypes were not disclosed to investigators performing the histology and generating semi-quantitative readouts.
# [10] = test system: 129-Col4a3^tm1Dec/J mice; test: Survival of mice homozygous for Col4a3^tm1Dec (mouse model of Alport syndrome), Example 1; format: in vivo; conditions: 20 mg/kg i.p. biweekly from 6 weeks of age until mortality
# From the text: 129-Col4a3^tm1Dec/J mice were obtained from The Jackson Laboratory (Stock No:002908; COL4A3 KO). The mice comprise the Col4a3^tm1Dec mutation described e.g. in Cosgrove et al., Genes Dev. (1996) 10:2981-2992, which is hereby incorporated by reference in its entirety. 129-Col4a3^tm1Dec/J mice comprise a targeted mutation to Col4a3, resulting in progressive glomerulonephritis with microhematuria and proteinuria, and mice homozygous for the mutation typically die at about 8.5 weeks.
# From 6 weeks of age, mice homozygous for the Col4a3^tm1Dec mutation were administered biweekly by intraperitoneal injection of 20 mg/kg of Enx203, or an isotype-matched control antibody, until mortality.
# [11] = test system: Col4a3−/− mice; test: Treatment study in Col4a3−/− mice: Western blot of kidney protein extracts; format: in vivo, mouse; conditions: vs IgG
# Description: as §1
# Western blot was carried out on total protein extracts from mouse kidney tissues. Kidneys were lysed in radioimmunoprecipitation assay (RIPA) buffer containing protease and phosphatase inhibitors (Thermo Scientifics), followed by centrifugation to clear the lysate. Protein concentrations were determined by Bradford assay (Bio-Rad). Protein lysates were separated by SDS-PAGE, transferred to PVDF membrane, and subjected to immunoblot analysis for various antibodies as outlined in the main text, figures, or and/or figure legends. Proteins were visualized using the ECL detection system (Pierce) with the appropriate secondary antibodies: anti-rabbit HRP or antimouse HRP.
# [12] = test system: Col4a3−/− mice; test: Treatment study in Col4a3−/− mice: body weight and kidney weight; format: in vivo, mouse
# Description: as §1
# Over recent years, antibodies that inhibit IL11 signaling in mouse and human cells have been developed^15,17. One of these neutralizing IL11 antibodies (X203) or an IgG control were administered to 6-week-old Col4a3^−/− mice, the time point when initiation of ramipril has proven ineffective^6, and examined renal pathologies at 8.5 weeks of age, as compared to age-matched wild-type controls (FIG. 3A).
molecule,measurement,setting,value
"COc1ccc2c(c1)c(CC(=O)O)c(C)n2C(=O)c1ccc(Cl)cc1 [indomethacin, reference compound]",expression of IL-11,[1],reduction in the expression of IL-11
CCOC(=O)[C@H](CCc1ccccc1)N[C@@H](C)C(=O)N1[C@H](C(=O)O)C[C@@H]2CCC[C@@H]21 [ramipril],beneficial effect of delayed treatment,[2]; treatment delayed until after proteinuria was established (6-week-old mice),no beneficial effect; also recorded: ineffective
same,kidney dysfunction and lifespan,"[2]; treatment of 4-week-old mice, prior to onset of proteinuria and tubulointerstitial fibrosis",attenuated kidney dysfunction and prolonged lifespan
same,improvement of median survival over untreated mice,[3],14 days
same,mean percentage lifespan extension,[3],25.40%
interferon-gamma (IFNγ): interferon-gamma,expression of IL-11,[1],reduction in the expression of IL-11
B1,Kd,[4],~22 nM
B2,number of WT1-positive cells (podocytes),[5],restored towards normal; also recorded: restoration of podocytes
same,serum blood urea nitrogen (BUN),[6],improved renal function; also recorded: markedly lowered
same,serum creatinine (Cr),[6],improved renal function; also recorded: markedly lowered
same,urinary albumin:creatinine ratio (ACR),[6],reduced albuminuria; also recorded: markedly lowered
same,median lifespan,"[7]; 20 mg/kg 2x/week from 6 weeks of age until death, IgG control 62.5 days, P=0.0015",88.5 days
same,extension of median life span,"[7]; from 62.5 to 88.5 days, vs IgG",41.6%
same,"renal levels of extracellular matrix genes (Col1a1, Col1a2, Col3a1, Fn), Acta2 and pro-fibrotic factors (Il11, Tgfb1)","[8]; mRNA, 20 mg/kg 2x/week for 2.5 weeks from 6 weeks of age, vs IgG",all reduced
same,indicators of tubule damage (Kim1 and Ngal),[8]; renal mRNA,restored by X203 administration towards the levels seen in wildtype mice
same,Tnfα expression,"[8]; renal mRNA, vs IgG",reduced Tnfα expression
same,"proinflammatory interleukins (Il6, Il1b) and CC chemokines (Ccl2, Ccl5)","[8]; renal mRNA, vs IgG",equally diminished
same,improvement of median survival over untreated mice,[3],28 days
same,mean percentage lifespan extension,[3],41.93%
same,kidney fibrosis by biochemical and histological assessments,[9],reduced severity of renal fibrosis; also recorded: significantly less kidney fibrosis
same,increase in survival relative to mice treated with isotype-matched control antibody,[10],up to 40%
same,ERK and STAT3 phosphorylation in kidneys,[11]; 20 mg/kg 2x/week for 2.5 weeks from 6 weeks of age,largely reduced; also recorded: largely diminished
same,TGFβ upregulation in the kidneys,[11]; Western blot,significantly reduced the degree of TGFβ upregulation
same,Caspase 3 activation,[11]; kidney Western blot (cleaved Caspase 3),reduced
same,alpha-smooth muscle actin (αSMA) and fibronectin protein,"[11]; kidney, reduction seen on transcripts",confirmed at the protein level
same,podocyte markers WT1 and Podocin by immunoblotting,[11]; kidney,restored towards normal; also recorded: Preservation of podocytes
same,kidney mass (kidney weight),"[12]; 20 mg/kg 2x/week for 2.5 weeks from 6 weeks of age, vs IgG",preserved kidney mass
same,total body weight loss as a percentage of starting body weight,"[12]; 20 mg/kg i.p. 2x/week for 2.5 weeks from 6 weeks of age, end of study, IgG control 30%, P=0.0003",17%
